System: peptide library, one residue held at a place counted from the S/T acceptor
Assay: relative phosphorylation of the sub-library (ratio to the mean residue at this position); higher = residue favoured
Settings: human
Procedure, shortened: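 Each biotinylated degenerate peptide sub-library fixed one residue at one position around a central Ser/Thr and was incubated with a purified recombinant kinase, a human or orthologue construct, in 384-well plates. The 90 min reactions, under kinase-specific conditions, contained 50 μM peptide and 50 μM ATP spiked with γ-32P-ATP. Phosphorylation was read by phosphorimaging spots on streptavidin membranes and quantifying them by densitometry. Relative sub-library phosphorylation expresses each value as a ratio to the mean residue at that position.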

RPS6KA3, construct: Full length, sequence (P51812 whole entry, looked up): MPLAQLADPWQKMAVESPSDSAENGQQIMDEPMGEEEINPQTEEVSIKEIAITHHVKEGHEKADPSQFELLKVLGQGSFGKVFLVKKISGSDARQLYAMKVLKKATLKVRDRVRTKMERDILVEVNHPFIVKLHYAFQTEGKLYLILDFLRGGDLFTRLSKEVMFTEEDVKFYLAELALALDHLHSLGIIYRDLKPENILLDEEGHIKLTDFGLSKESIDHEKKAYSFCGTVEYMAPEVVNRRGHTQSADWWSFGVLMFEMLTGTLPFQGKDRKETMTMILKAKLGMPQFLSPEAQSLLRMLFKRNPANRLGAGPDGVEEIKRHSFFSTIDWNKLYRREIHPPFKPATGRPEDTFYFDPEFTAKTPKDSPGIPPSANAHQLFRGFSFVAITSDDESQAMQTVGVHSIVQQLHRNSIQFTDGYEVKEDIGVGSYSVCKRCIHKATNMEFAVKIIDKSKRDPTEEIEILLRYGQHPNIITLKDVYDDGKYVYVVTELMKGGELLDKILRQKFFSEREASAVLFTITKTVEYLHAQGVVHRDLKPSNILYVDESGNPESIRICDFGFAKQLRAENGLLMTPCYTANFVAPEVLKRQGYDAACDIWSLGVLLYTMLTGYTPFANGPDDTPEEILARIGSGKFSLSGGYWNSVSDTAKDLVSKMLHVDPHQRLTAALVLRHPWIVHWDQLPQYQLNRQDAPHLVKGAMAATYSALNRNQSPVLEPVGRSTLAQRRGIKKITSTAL
ROCK2, construct: aa5-554, sequence (O75116 5-554, looked up): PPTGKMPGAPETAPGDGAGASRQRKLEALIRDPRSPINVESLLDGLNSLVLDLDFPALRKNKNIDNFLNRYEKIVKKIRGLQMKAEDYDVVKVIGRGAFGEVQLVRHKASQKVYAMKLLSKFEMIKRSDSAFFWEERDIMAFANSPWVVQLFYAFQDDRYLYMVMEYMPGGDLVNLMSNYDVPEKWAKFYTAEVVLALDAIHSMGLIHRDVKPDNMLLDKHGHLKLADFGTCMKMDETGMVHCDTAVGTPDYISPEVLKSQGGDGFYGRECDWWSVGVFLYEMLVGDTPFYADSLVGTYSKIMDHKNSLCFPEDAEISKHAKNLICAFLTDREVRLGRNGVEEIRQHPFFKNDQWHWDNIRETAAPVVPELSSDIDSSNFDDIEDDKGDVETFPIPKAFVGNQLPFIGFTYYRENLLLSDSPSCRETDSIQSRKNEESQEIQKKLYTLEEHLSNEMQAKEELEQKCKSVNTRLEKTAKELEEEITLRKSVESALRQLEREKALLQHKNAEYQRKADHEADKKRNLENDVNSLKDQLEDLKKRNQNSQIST
SGK1, construct: aa61-end, sequence (O00141 61-431, looked up): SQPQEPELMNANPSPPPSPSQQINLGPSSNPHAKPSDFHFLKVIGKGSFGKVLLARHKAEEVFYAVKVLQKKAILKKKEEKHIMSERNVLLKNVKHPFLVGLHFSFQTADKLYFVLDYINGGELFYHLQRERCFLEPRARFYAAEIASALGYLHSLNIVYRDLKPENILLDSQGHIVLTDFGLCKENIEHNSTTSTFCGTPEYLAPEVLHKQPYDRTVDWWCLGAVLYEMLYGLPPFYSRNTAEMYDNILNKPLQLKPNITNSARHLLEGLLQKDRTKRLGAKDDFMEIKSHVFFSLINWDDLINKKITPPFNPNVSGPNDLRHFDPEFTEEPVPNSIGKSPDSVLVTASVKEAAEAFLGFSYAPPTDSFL

ROCK2, construct: aa5-554 (from UniProt O75116)
relative phosphorylation
Settings	at +1	at +2	at +3	at +4	at -1	at -2	at -3	at -4	at -5
A fixed	0.695	1.01	0.926	0.921	0.75	0.607	0.647	0.938	1
D fixed	0.471	0.48	0.757	0.745	0.406	0.263	0.297	0.58	0.562
E fixed	0.455	0.51	0.614	0.751	0.301	0.251	0.28	0.613	0.471
F fixed	0.69	0.707	0.962	1.1	0.559	0.474	0.341	0.622	0.679
G fixed	0.957	0.876	1.73	1.31	1.08	0.706	0.724	1.22	1.19
H fixed	0.984	1.16	1.25	1.1	1.16	1.42	1.59	1.13	1.25
I fixed	1.49	1.29	0.948	0.984	0.482	0.3	0.281	0.516	0.692
K fixed	1.19	1.44	0.998	1.2	2.77	2.71	2.57	2.3	2.45
L fixed	1.48	1.08	0.952	0.886	0.912	0.391	0.304	0.504	0.494
M fixed	1.52	0.743	0.876	0.929	0.792	0.446	0.361	0.707	0.571
N fixed	1.43	0.734	0.931	1.04	1.15	0.937	0.637	0.836	0.779
P fixed	0.266	0.935	1.28	1.29	1.28	0.665	0.785	1.19	1.04
Q fixed	1.51	0.75	0.835	0.946	1.09	0.801	0.651	0.904	0.865
R fixed	1.77	1.81	0.97	1.07	2.2	5.27	6.24	2.89	2.83
V fixed	0.908	1.48	0.835	0.727	0.619	0.321	0.297	0.555	0.641
W fixed	0.616	0.922	1.08	1.09	0.528	0.762	0.53	0.822	0.736
Y fixed	0.564	1.07	1.06	0.914	0.929	0.681	0.461	0.673	0.758
pThr fixed	0.595	0.566	0.556	0.763	0.336	0.465	0.494	0.755	0.805
pTyr fixed	0.409	0.592	0.736	0.663	0.386	0.338	0.435	0.489	0.705

RPS6KA3, construct: Full length (from UniProt P51812)
relative phosphorylation
Settings	at +1	at +2	at +3	at +4	at -1	at -2	at -3	at -4	at -5
A fixed	0.876	1.48	0.988	1.03	0.917	0.555	0.652	1.08	0.961
D fixed	0.617	1.08	1.48	1.39	0.636	0.658	0.452	0.62	0.501
E fixed	0.97	0.833	1.58	1.24	0.466	0.617	0.402	0.76	0.4
F fixed	0.848	0.548	0.78	0.679	0.709	0.568	0.327	0.682	0.703
G fixed	0.704	1.17	1.21	1.17	1.13	0.85	0.555	1.15	1.01
H fixed	1.16	1.34	1.14	0.914	1.01	0.979	0.566	0.911	0.892
I fixed	1.2	0.77	0.666	0.826	0.652	0.615	0.373	0.834	0.762
K fixed	1.16	1.08	0.972	1.17	1.49	2.6	1.7	1.8	2.04
L fixed	0.927	0.732	0.905	0.652	0.906	0.976	0.37	0.811	0.944
M fixed	1.1	0.727	0.722	0.828	0.933	0.614	0.291	0.99	0.736
N fixed	0.957	0.985	0.827	0.902	1.02	0.708	0.464	0.855	0.719
P fixed	0.432	0.677	0.997	1.6	2.36	0.457	0.785	0.863	0.951
Q fixed	1.22	0.716	0.808	0.895	0.935	0.962	0.641	1.01	0.836
R fixed	1.34	1.59	1.11	1.26	1.39	4.29	8.12	2.46	3.13
V fixed	1.45	1.07	0.839	0.941	0.752	0.591	0.393	0.698	0.852
W fixed	0.887	0.858	0.998	0.738	0.628	0.361	0.408	0.725	0.807
Y fixed	1.15	1.34	0.979	0.762	1.06	0.601	0.498	0.753	0.748
pThr fixed	1.89	1.03	1.64	2.38	0.318	0.319	0.343	0.719	0.648
pTyr fixed	1.7	1.14	2.08	1.47	0.543	0.3	0.306	0.448	0.668

RPS6KA4, construct: Full length (from UniProt O75676)
relative phosphorylation
Settings	at +1	at +2	at +3	at +4	at -1	at -2	at -3	at -4	at -5
A fixed	0.665	0.804	0.781	0.843	0.745	0.911	0.769	1.08	1.06
D fixed	0.621	1.61	1.12	1.43	0.996	0.411	0.319	0.715	0.699
E fixed	0.77	1.07	1.12	1.33	0.567	0.413	0.329	0.853	0.661
F fixed	1.3	0.921	1.08	0.864	0.749	0.749	0.472	0.868	1.01
G fixed	0.547	0.65	1.03	1.1	1.11	0.775	0.465	1.15	1.06
H fixed	1.21	1.7	1.3	1.35	1.04	0.924	0.817	1.17	1.2
I fixed	1.26	0.85	0.811	0.767	0.44	0.354	0.258	0.665	0.858
K fixed	0.634	0.72	0.71	0.934	1.41	1.2	0.915	1.32	1.25
L fixed	1	0.698	0.998	0.782	0.791	0.518	0.285	0.679	1
M fixed	1.27	0.909	1.04	0.867	1.04	0.629	0.373	0.84	0.857
N fixed	0.937	1.44	0.935	1.23	1.57	0.861	0.473	1.01	0.871
P fixed	0.345	0.5	0.942	1.09	1.3	0.429	0.64	1.01	0.887
Q fixed	1.1	0.873	0.949	1.25	1.19	0.885	0.642	1.09	0.831
R fixed	0.771	0.869	0.677	0.74	1.5	6.18	8.7	1.81	1.96
V fixed	1.24	0.807	0.726	0.639	0.51	0.354	0.247	0.583	0.773
W fixed	1.89	1.39	1.62	1.07	0.898	0.748	0.738	1.13	1.19
Y fixed	1.44	1.18	1.17	0.72	1.14	0.66	0.555	1.04	0.832
pThr fixed	1.11	1.18	1.15	1.83	0.415	0.419	0.515	0.698	0.644
pTyr fixed	1.57	1.17	1.47	1.39	1.27	0.502	0.491	0.81	0.804

SGK1, construct: aa61-end (from UniProt O00141)
relative phosphorylation
Settings	at +1	at +2	at +3	at +4	at -1	at -2	at -3	at -4	at -5
A fixed	0.603	1.03	0.911	1.01	0.815	1.22	0.388	1.06	0.955
D fixed	0.457	0.581	1.1	0.881	0.63	0.242	0.147	0.679	0.427
E fixed	0.461	0.537	1.14	1.03	0.483	0.227	0.157	0.749	0.453
F fixed	2.32	0.768	0.975	0.795	0.768	0.493	0.16	0.613	0.62
G fixed	0.766	1.06	1.33	1.17	1.73	0.758	0.268	1.04	0.948
H fixed	0.889	1.6	1.35	1.33	1.25	0.946	0.757	1.01	0.99
I fixed	1.45	1.18	0.784	0.863	0.395	0.28	0.145	0.641	0.7
K fixed	0.861	0.906	1.17	1.05	1.38	3.57	1.4	1.98	2.38
L fixed	1.22	1.27	0.975	0.702	0.751	0.401	0.149	0.699	0.617
M fixed	1.49	0.948	0.833	0.936	1.05	0.335	0.157	0.838	0.736
N fixed	0.881	1.13	0.976	1.22	1.52	0.55	0.245	0.825	0.852
P fixed	0.859	0.94	0.921	1.31	1.25	0.388	0.296	1.17	0.882
Q fixed	0.974	0.674	0.939	0.921	0.893	0.544	0.443	0.902	0.744
R fixed	1.01	1.58	1.01	1.03	1.64	5.91	11.7	2.89	3.67
V fixed	1.16	1.01	0.753	0.737	0.471	0.352	0.152	0.693	0.675
W fixed	0.7	0.737	0.892	1.1	0.692	0.332	0.225	0.59	0.626
Y fixed	0.906	1.05	0.934	0.912	1.28	0.452	0.219	0.625	0.721
pThr fixed	0.747	0.655	0.926	1.36	0.306	0.367	0.24	0.711	0.556
pTyr fixed	0.806	1.04	1.43	1.54	0.752	0.319	0.232	0.574	0.722
